Target: T1, 6×His::UNC-84(912–1,111) (C. elegans, UniProt Q20745 912-1111)
T1 sequence (looked up): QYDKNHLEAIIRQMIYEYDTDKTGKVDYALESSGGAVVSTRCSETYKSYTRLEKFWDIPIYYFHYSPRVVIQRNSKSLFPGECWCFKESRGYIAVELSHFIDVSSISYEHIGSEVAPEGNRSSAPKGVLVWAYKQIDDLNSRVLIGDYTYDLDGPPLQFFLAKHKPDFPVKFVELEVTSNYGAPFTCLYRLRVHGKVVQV
Test: SEC

binding result: binds
Binder: ASILVLGFLVFIAWMFININSALNAPPNA (domain or fragment, C. elegans, UniProt Q23529 749-777, looked up) [MBP::ZYG-12(749–777)]
